Where a chain is given by its changes, count along the chain named. In names and notes the source's numbering stands.
Key:
[1] = target: rhNav1.7α + β1-β2-β3 (rhesus Nav1.7α co-expressed with Navβ1, Navβ2 and Navβ3) (rhesus monkey); test: FACS, periplasmic extract, CHO Flp-In cells; SD MFI 18
[2] = target: rhNav1.7α + β1-β2-β3 (rhesus Nav1.7α co-expressed with Navβ1, Navβ2 and Navβ3) (rhesus monkey); test: FACS, periplasmic extract, CHO Flp-In cells; SD MFI 8
[3] = target: muNav1.7α (murine Nav1.7α) (murine) (UniProt Q62205); test: FACS, periplasmic extract, HEK Jmp-In cells; SD MFI 21
[4] = target: rhNav1.7α + β1-β2-β3 (rhesus Nav1.7α co-expressed with Navβ1, Navβ2 and Navβ3) (rhesus monkey); test: FACS, periplasmic extract, CHO Flp-In cells; SD MFI 6
[5] = target: muNav1.7α (murine Nav1.7α) (murine) (UniProt Q62205); test: FACS, periplasmic extract, HEK Jmp-In cells; SD MFI 1
[6] = target: rhNav1.7α + β1-β2-β3 (rhesus Nav1.7α co-expressed with Navβ1, Navβ2 and Navβ3) (rhesus monkey); test: FACS, periplasmic extract, CHO Flp-In cells; SD MFI 33
[7] = target: muNav1.7α (murine Nav1.7α) (murine) (UniProt Q62205); test: FACS, periplasmic extract, HEK Jmp-In cells; SD MFI 23
[8] = target: rhNav1.7α + β1-β2-β3 (rhesus Nav1.7α co-expressed with Navβ1, Navβ2 and Navβ3) (rhesus monkey); test: FACS, periplasmic extract, CHO Flp-In cells; SD MFI 22
[9] = target: rhNav1.7α + β1-β2-β3 (rhesus Nav1.7α co-expressed with Navβ1, Navβ2 and Navβ3) (rhesus monkey); test: FACS, periplasmic extract, CHO Flp-In cells; SD MFI 10
[10] = target: muNav1.7α (murine Nav1.7α) (murine) (UniProt Q62205); test: FACS, periplasmic extract, HEK Jmp-In cells; SD MFI 19
[11] = target: rhNav1.7α + β1-β2-β3 (rhesus Nav1.7α co-expressed with Navβ1, Navβ2 and Navβ3) (rhesus monkey); test: FACS, periplasmic extract, CHO Flp-In cells; SD MFI 0
[12] = target: muNav1.7α (murine Nav1.7α) (murine) (UniProt Q62205); test: FACS, periplasmic extract, HEK Jmp-In cells; SD MFI 15
[13] = target: muNav1.7α (murine Nav1.7α) (murine) (UniProt Q62205); test: FACS, periplasmic extract, HEK Jmp-In cells; SD MFI 0
[14] = target: rhNav1.7α + β1-β2-β3 (rhesus Nav1.7α co-expressed with Navβ1, Navβ2 and Navβ3) (rhesus monkey); test: FACS, periplasmic extract, CHO Flp-In cells; SD MFI 30
[15] = target: muNav1.7α (murine Nav1.7α) (murine) (UniProt Q62205); test: FACS, periplasmic extract, HEK Jmp-In cells; SD MFI 25
[16] = target: rhNav1.7α + β1-β2-β3 (rhesus Nav1.7α co-expressed with Navβ1, Navβ2 and Navβ3) (rhesus monkey); test: FACS, periplasmic extract, CHO Flp-In cells; SD MFI 2
[17] = target: muNav1.7α (murine Nav1.7α) (murine) (UniProt Q62205); test: FACS, periplasmic extract, HEK Jmp-In cells; SD MFI 3361
[18] = target: rhNav1.7α + β1-β2-β3 (rhesus Nav1.7α co-expressed with Navβ1, Navβ2 and Navβ3) (rhesus monkey); test: FACS, periplasmic extract, CHO Flp-In cells; SD MFI 4
[19] = target: rhNav1.7α + β1-β2-β3 (rhesus Nav1.7α co-expressed with Navβ1, Navβ2 and Navβ3) (rhesus monkey); test: FACS, periplasmic extract, CHO Flp-In cells; SD MFI 1
[20] = target: muNav1.7α (murine Nav1.7α) (murine) (UniProt Q62205); test: FACS, periplasmic extract, HEK Jmp-In cells; SD MFI 5
[21] = target: muNav1.7α (murine Nav1.7α) (murine) (UniProt Q62205); test: FACS, periplasmic extract, HEK Jmp-In cells; SD MFI 123
[22] = target: muNav1.7α (murine Nav1.7α) (murine) (UniProt Q62205); test: FACS, periplasmic extract, HEK Jmp-In cells; SD MFI 7
[23] = target: huNav1.7α + β1-β2-β3 (human Nav1.7α co-expressed with Navβ1, Navβ2 and Navβ3) (human) (UniProt Q15858); test: FACS, periplasmic extract, CHO Flp-In cells; SD MFI 16
[24] = target: rhNav1.7α + β1-β2-β3 (rhesus Nav1.7α co-expressed with Navβ1, Navβ2 and Navβ3) (rhesus monkey); test: FACS, periplasmic extract, CHO Flp-In cells; SD MFI 20
[25] = target: muNav1.7α (murine Nav1.7α) (murine) (UniProt Q62205); test: FACS, periplasmic extract, HEK Jmp-In cells; SD MFI 12
[26] = target: muNav1.7α (murine Nav1.7α) (murine) (UniProt Q62205); test: FACS, periplasmic extract, HEK Jmp-In cells; SD MFI 61
[27] = target: muNav1.7α (murine Nav1.7α) (murine) (UniProt Q62205); test: FACS, periplasmic extract, HEK Jmp-In cells; SD MFI 8
[28] = target: muNav1.7α (murine Nav1.7α) (murine) (UniProt Q62205); test: FACS, periplasmic extract, HEK Jmp-In cells; SD MFI 16
[29] = target: rhNav1.7α + β1-β2-β3 (rhesus Nav1.7α co-expressed with Navβ1, Navβ2 and Navβ3) (rhesus monkey); test: FACS, periplasmic extract, CHO Flp-In cells; SD MFI 13
[30] = target: huNav1.5-β1-β2-β3 (human) (UniProt Q14524); test: binding FACS, HEK Flp-In
[31] = target: huNav1.5-β1-β2-β3 (human) (UniProt Q14524); test: FACS, CHO Flp-In, competitor 1 µM IRR00092
[32] = target: huNav1.5-β1-β2-β3 (human) (UniProt Q14524); test: FACS, CHO Flp-In, competitor 1 µM F010300703
[33] = target: huNav1.5-β1-β2-β3 (human) (UniProt Q14524); test: binding FACS, CHO Flp-In, periplasmic extract

B1: F0103464B09 N99A library variant (VHH, name in Kabat numbering)
VHH: EVQLVESGGGLVQPGGSLRLSCATTSRAFIRDVFTGWYRRVPGKERELVARIYNGGNTNYADFAKGRFSISRDNAKKMVTLRMSNLKPEDTGVYYCLFSGTIATGREYRSGDYWGQGTLVTVSS
Mean MFI [1]: 611 MFI

B2: F0103464B09 N99G library variant (VHH, name in Kabat numbering)
VHH: B1 VHH with A103G
Mean MFI [2]: 530 MFI | Mean MFI [3]: 956 MFI

B3: F0103464B09 N99F library variant (VHH, name in Kabat numbering)
VHH: B1 VHH with A103F
Mean MFI [4]: 516 MFI | Mean MFI [5]: 938 MFI

B4: F0103464B09 T100E library variant (VHH, name in Kabat numbering)
VHH: B1 VHH with A103N, T104E
Mean MFI [6]: 518 MFI | Mean MFI [7]: 973 MFI

B5: F0103464B09 N99T library variant (VHH, name in Kabat numbering)
VHH: B1 VHH with A103T
Mean MFI [8]: 839 MFI

B6: F0103464B09 N99L library variant (VHH, name in Kabat numbering)
VHH: B1 VHH with A103L
Mean MFI [9]: 536 MFI | Mean MFI [10]: 919 MFI

B7: F0103464B09 N99M library variant (VHH, name in Kabat numbering)
VHH: B1 VHH with A103M
Mean MFI [11]: 523 MFI | Mean MFI [12]: 936 MFI

B8: F0103464B09 N99D library variant (VHH, name in Kabat numbering)
VHH: B1 VHH with A103D
Mean MFI [13]: 929 MFI | Mean MFI [14]: 520 MFI

B9: F0103464B09 N99C library variant (VHH, name in Kabat numbering)
VHH: B1 VHH with A103C
Mean MFI [4]: 528 MFI | Mean MFI [15]: 930 MFI

B10: F0103464B09 N99W library variant (VHH, name in Kabat numbering)
VHH: B1 VHH with A103W
Mean MFI [16]: 530 MFI | Mean MFI [17]: 3320 MFI

B11: F0103464B09 T100F library variant (VHH, name in Kabat numbering)
VHH: B1 VHH with A103N, T104F
Mean MFI [14]: 533 MFI | Mean MFI [10]: 997 MFI

B12: F0103464B09 T100H library variant (VHH, name in Kabat numbering)
VHH: B1 VHH with A103N, T104H
Mean MFI [18]: 689 MFI

B13: F0103464B09 T100D library variant (VHH, name in Kabat numbering)
VHH: B1 VHH with A103N, T104D
Mean MFI [19]: 526 MFI

B14: F0103464B09 N99R library variant (VHH, name in Kabat numbering)
VHH: B1 VHH with A103R
Mean MFI [11]: 572 MFI | Mean MFI [20]: 975 MFI

B15: F0103464B09 N99Q library variant (VHH, name in Kabat numbering)
VHH: B1 VHH with A103Q
Mean MFI [9]: 546 MFI | Mean MFI [21]: 1490 MFI

B16: F0103464B09 N99I library variant (VHH, name in Kabat numbering)
VHH: B1 VHH with A103I
Mean MFI [4]: 540 MFI | Mean MFI [22]: 946 MFI

B17: F0103464B09 N99P library variant (VHH, name in Kabat numbering)
VHH: B1 VHH with A103P
Mean MFI [23]: 612 MFI | Mean MFI [24]: 554 MFI | Mean MFI [25]: 912 MFI

B18: F0103464B09 N99Y library variant (VHH, name in Kabat numbering)
VHH: B1 VHH with A103Y
Mean MFI [24]: 490 MFI | Mean MFI [26]: 936 MFI

B19: F0103464B09 N99E library variant (VHH, name in Kabat numbering)
VHH: B1 VHH with A103E
Mean MFI [4]: 528 MFI | Mean MFI [5]: 938 MFI

B20: F0103464B09 N99K library variant (VHH, name in Kabat numbering)
VHH: B1 VHH with A103K
Mean MFI [19]: 537 MFI | Mean MFI [27]: 923 MFI

B21: F0103464B09 N99V library variant (VHH, name in Kabat numbering)
VHH: B1 VHH with A103V
Mean MFI [4]: 552 MFI | Mean MFI [28]: 952 MFI

B22: F0103464B09 T100V library variant (VHH, name in Kabat numbering)
VHH: B1 VHH with A103N, T104V
Mean MFI [29]: 564 MFI | Mean MFI [28]: 1680 MFI

B23: F0103PMP492E09 (bispecific antibody)
chain: EVQLVESGGGLVQPGGSLRLSCAASGSIFNINSMAWYRRAPGKQRELVASSTNGGSTNYADSVKGRFTISRDNAKRVYLQMNSLTPEDTAVYYCRALLQPSIYDISRTYWGQGTLVTVSSGGGGSGGGGSGGGGSGGGGSGGGGSGGGGSGGGGSGGGGSGGGGSGGGGSEVQLVESGGGLVQAGGSLRLSCAASKSILSFAYMRWYRQAPGKQREFVASIAIGGATSYTDSVKGRFTISRDNAKNTVYLQMNSLKPEDTAVYYCSAPAGQYRGQGTLVTVSSAAADYKDHDGDYKDHDIDYKDDDDKGAAHHHHHHKAAGGGGG
MFI [30]: 1660 MFI | MFI [31]: 1860 MFI | MFI [32]: 825 MFI | MFI [33]: 559 MFI

B24: F0103PMP478E09 (bispecific antibody)
chain: EVQLVESGGGLVQPGGSLRLSCAASGSIFNINSMAWYRRAPGKQRELVASSTNGGSTNYADSVKGRFTISRDNAKRVYLQMNSLTPEDTAVYYCRALLQPSIYDISRTYWGQGTLVTVSSGGGGSGGGGSGGGGSGGGGSGGGGSGGGGSGGGGSGGGGSGGGGSGGGGSEVQLVESGGGLVQAGGSLRLSCAASGRAFSTLAMGWFRQAPGKEREFVAAISRNGNNSATGDSLKGRFTISRDSTKSTVFLQMNTLKPEDTAVYYCAAISTPSASHPYVRKESYRYWGQGTQVTVSSAAADYKDHDGDYKDHDIDYKDDDDKGAAHHHHHHKAAGGGGG
MFI [30]: 877 MFI | MFI [31]: 2060 MFI | MFI [32]: 833 MFI | MFI [33]: 1080 MFI
